Results published in paper PMC10457294 (Nature Communications, 2023).

B1: human B7.2 ectodomain, His-tagged (domain or fragment)
chain: LKIQAYFNETADLPCQFANSQNQSLSELVVFWQDQENLVLNEVYLGKEKFDSVHSKYMGRTSFDSDSWTLRLHNLQIKDKGLYQCIIHHKKPTGMIRIHQMNSELSVLANFSQPEIVPISNITENVYINLTCSSIHGYPEPKKMSVLLRTKNSTIEYDGVMQKSQDNVTELYDVSISLSVSFPDVTSNMTIFCILETDKTRLLSSPFSIELED
notes: also called hB7.2; CD86
B2: human B7.2 ectodomain fused to human Fc (Fc fusion)
chain: B1 chain
notes: also called hB7.2-Fc; hB7.2-hFc; not shown: Fc (human), C-terminal, kept
B3: human B7.1 ectodomain, His-tagged (domain or fragment)
chain: VIHVTKEVKEVATLSCGHNVSVEELAQTRIYWQKEKKMVLTMMSGDMNIWPEYKNRTIFDITNNLSIVILALRPSDEGTYECVVLKYEKDAFKREHLAEVTLSVKADFPTPSISDFEIPTSNIRRIICSTSGGFPEPHLSWLENGEELNAINTTVSQDPETELYAVSSKLDFNMTTNHSFMCLIKYGHLRVNQTFNWNTT
notes: also called hB7.1; CD80
B4: human B7.1 ectodomain fused to human Fc (Fc fusion, UniProt P33681-1 35-234, looked up)
chain: B3 chain
notes: also called hB7.1-Fc; hB7.1-hFc; not shown: Fc (human), C-terminal, kept

Legend:
[1] = target: MPXV Bio-M2 (site-specifically biotinylated MPXV Avi-M2) (monkeypox virus (Clade I), UniProt Q8V554 18-220); test: BLI; […] (10 ug/mL) […]; 10 mM HEPES pH 7.4, 150 mM NaCl, 3 mM EDTA, 1% BSA; 1:1 Langmuir model, […]; conditions: both partners purified
[2] = target: T1, MPXV M2 (monkeypox virus M2 protein), His-tagged, wild type (monkeypox virus (Clade I), UniProt Q8V554 18-220); test: BLI; […] (10 ug/mL) […]; 10 mM HEPES pH 7.4, 150 mM NaCl, 3 mM EDTA, 0.05% Tween, 1% BSA; 25 °C; 1:1 model; […]; conditions: both partners purified
T1 construct: copies: 6 or 7

| Binder | Kd [1] [nM] | t1/2 (dissociation half-life time) [1] [min] | Kd [2] [nM] |
| --- | --- | --- | --- |
| B1 | 388 | 0.345 |  |
| B2 |  |  | 0.05 |
| B3 | 95.3 | 1.71 |  |
| B4 |  |  | 0.15 |
